Data on 36 substances can be found in PMC4513852.

For experiment [1], the target named is Hin F106L (Salmonella enterica) (UniProt P03013). Briefly: native gel or EMSA.
Experiment [2] has as its target Hin M109W (Salmonella enterica) (UniProt P03013). In words: native gel or EMSA.
For experiment [3], the target named is Hin F105I (Salmonella enterica) (UniProt P03013). In words: native gel or EMSA. For orientation: A gel shift assay detects complexes by their altered migration in electrophoresis.
For experiment [4], the target named is Hin-Q134C (wt) (Salmonella enterica) (UniProt P03013). Briefly: cross-linking.
In experiment [5] the target is Hin F105Q (Salmonella enterica) (UniProt P03013). In words: native gel or EMSA.
The target of experiment [6] is Hin F106G (Salmonella enterica) (UniProt P03013). In words: native gel or EMSA.
Experiment [7] concerns the target Hin F105V (Salmonella enterica) (UniProt P03013). In words: native gel or EMSA.
In experiment [8] the target is Hin F106V (Salmonella enterica) (UniProt P03013). In words: native gel or EMSA.
For experiment [9], the target named is Hin M109Y (Salmonella enterica) (UniProt P03013). In words: native gel or EMSA.
For experiment [10], the target named is Hin F106N (Salmonella enterica) (UniProt P03013). In words: native gel or EMSA.
Experiment [11] deals with Hin F106A (Salmonella enterica) (UniProt P03013). Briefly: native gel or EMSA.
For experiment [12], the target named is Hin F106R (Salmonella enterica) (UniProt P03013). Briefly: native gel or EMSA.
Experiment [13] concerns the target Hin F106Y (Salmonella enterica) (UniProt P03013).
For experiment [14] the target is unchanged. In words: native gel or EMSA.
The target of experiment [15] is Hin F106E (Salmonella enterica) (UniProt P03013). Briefly: native gel or EMSA.
In experiment [16] the target is Hin M109R (Salmonella enterica) (UniProt P03013). Briefly: native gel or EMSA.
Experiment [17] has as its target Hin F106S (Salmonella enterica) (UniProt P03013). In words: native gel or EMSA.
For experiment [18], the target named is Hin F105W (Salmonella enterica) (UniProt P03013). In words: native gel or EMSA.
Experiment [19] concerns the target Hin F105H (Salmonella enterica) (UniProt P03013). In words: native gel or EMSA.
Experiment [20] deals with Hin F105L (Salmonella enterica) (UniProt P03013). Briefly: native gel or EMSA.
Experiment [21] concerns the target Hin F106W (Salmonella enterica) (UniProt P03013). Briefly: native gel or EMSA.
Experiment [22] deals with Hin F106D (Salmonella enterica) (UniProt P03013). In words: native gel or EMSA.
The target in experiment [23] is Hin M109F (Salmonella enterica) (UniProt P03013). In words: native gel or EMSA.
Experiment [24] concerns the target Hin F106P (Salmonella enterica) (UniProt P03013). Briefly: native gel or EMSA.
Experiment [25] has as its target Hin F106C (Salmonella enterica) (UniProt P03013). In words: native gel or EMSA.
The target of experiment [26] is Hin F106H (Salmonella enterica) (UniProt P03013). Briefly: native gel or EMSA.
In experiment [27] the target is Hin F105M (Salmonella enterica) (UniProt P03013). Briefly: native gel or EMSA.
The target of experiment [28] is Hin F105C (Salmonella enterica) (UniProt P03013). Briefly: native gel or EMSA.
In experiment [29] the target is Hin M109Q (Salmonella enterica) (UniProt P03013). Briefly: native gel or EMSA.
The target in experiment [30] is Hin M109N (Salmonella enterica) (UniProt P03013). In words: native gel or EMSA.
The target in experiment [31] is Hin F106M (Salmonella enterica) (UniProt P03013). Briefly: native gel or EMSA.
Experiment [32] has as its target Hin F106I (Salmonella enterica) (UniProt P03013). In words: native gel or EMSA.
For experiment [33], the target named is Hin M109H (Salmonella enterica) (UniProt P03013). Briefly: native gel or EMSA.
Experiment [34] has the same target. Briefly: native gel or EMSA. The source holds these as a separate data set.
The target of experiment [35] is Hin F106Q (Salmonella enterica) (UniProt P03013). In words: native gel or EMSA.
Experiment [36] deals with Hin F106K (Salmonella enterica) (UniProt P03013). In words: native gel or EMSA.
Experiment [37] has as its target Hin M109K (Salmonella enterica) (UniProt P03013). Briefly: native gel or EMSA.
Experiment [38] concerns the target Hin F106T (Salmonella enterica) (UniProt P03013). Briefly: native gel or EMSA.

Like-named read-outs stand apart in the source and are kept apart here.

In [1], “Hin F106L (from UniProt P03013 1-190) (enzyme)” displayed a stoichiometry N of 2.

Take “Hin M109W (from UniProt P03013 1-190) (enzyme)”: in experiment [2], the stoichiometry N worked out at 4.

“Hin F105I (from UniProt P03013 1-190) (enzyme)” returned a stoichiometry N in experiment [3] of 4.

As for “Hin-Q134C (wt) (from UniProt P03013 1-190) (enzyme)”, the percent crosslinked products in [4] came to 65%.

“Hin F105Q (from UniProt P03013 1-190) (enzyme)”: the stoichiometry N in [5] stood at 4.

“Hin F106G (from UniProt P03013 1-190) (enzyme)” returned a stoichiometry N in [6] of 2.

As to “Hin F105V (from UniProt P03013 1-190) (enzyme)”, the stoichiometry N in experiment [7] was found to be 4.

On to “Hin F106V (from UniProt P03013 1-190) (enzyme)”, for which the stoichiometry N in [8] is 2.

For “Hin M109Y (from UniProt P03013 1-190) (enzyme)”, in experiment [9], the stoichiometry N was 4.

Substance “Hin F106N (from UniProt P03013 1-190) (enzyme)” registered a stoichiometry N in experiment [10] of 2.

Regarding “Hin F106A (from UniProt P03013 1-190) (enzyme)”, in experiment [11], the stoichiometry N was 2.

“Hin F106R (from UniProt P03013 1-190) (enzyme)” yielded a stoichiometry N in [12] of 2.

For “Hin F106Y (from UniProt P03013 1-190) (enzyme)”, the Fis-activated in vitro DNA inversion rate, relative to wild type (% of the wild-type rate) in experiment [13] was 10. The substance further showed a stoichiometry N in [14] of 2.

As for “Hin F106E (from UniProt P03013 1-190) (enzyme)”, the stoichiometry N in experiment [15] was 2.

In [16], “Hin M109R (from UniProt P03013 1-190) (enzyme)” came in with a stoichiometry N of 4.

On to “Hin F106S (from UniProt P03013 1-190) (enzyme)”, for which the stoichiometry N in experiment [17] amounted to 2.

In turn, “Hin F105W (from UniProt P03013 1-190) (enzyme)” gave a stoichiometry N in [18] of 4.

Regarding “Hin F105H (from UniProt P03013 1-190) (enzyme)”, the stoichiometry N in [19] was 4.

Regarding “Hin F105L (from UniProt P03013 1-190) (enzyme)”, the stoichiometry N in experiment [20] was 4.

As to “Hin F106W (from UniProt P03013 1-190) (enzyme)”, in experiment [21], the stoichiometry N is 2.

With “Hin F106D (from UniProt P03013 1-190) (enzyme)”, the stoichiometry N in experiment [22] came out at 2.

In experiment [23], “Hin M109F (from UniProt P03013 1-190) (enzyme)” displayed a stoichiometry N of 2.

In turn, “Hin F106P (from UniProt P03013 1-190) (enzyme)” had a stoichiometry N in [24] of 2.

In turn, “Hin F106C (from UniProt P03013 1-190) (enzyme)” gave a stoichiometry N in experiment [25] of 2.

In turn, “Hin F106H (from UniProt P03013 1-190) (enzyme)” had a stoichiometry N in [26] of 2.

In experiment [27], “Hin F105M (from UniProt P03013 1-190) (enzyme)” gave a stoichiometry N of 4.

The substance “Hin F105C (from UniProt P03013 1-190) (enzyme)” yielded a stoichiometry N in experiment [28] of 4.

“Hin M109Q (from UniProt P03013 1-190) (enzyme)” came in with a stoichiometry N in [29] of 4.

Turning to “Hin M109N (from UniProt P03013 1-190) (enzyme)”, in [30], the stoichiometry N was determined as 2.

Consider “Hin F106M (from UniProt P03013 1-190) (enzyme)”, for which the stoichiometry N in experiment [31] was found to be 2.

The substance “Hin F106I (from UniProt P03013 1-190) (enzyme)” showed a stoichiometry N in experiment [32] of 2.

With “Hin M109H (from UniProt P03013 1-190) (enzyme)”, the stoichiometry N in experiment [33] turned out to be 4; in experiment [34] it was 2.

For the substance “Hin F106Q (from UniProt P03013 1-190) (enzyme)”, in experiment [35], the stoichiometry N was determined as 2.

Consider “Hin F106K (from UniProt P03013 1-190) (enzyme)”, for which the stoichiometry N in experiment [36] came to 2.

In the case of “Hin M109K (from UniProt P03013 1-190) (enzyme)”, the stoichiometry N in [37] was 4.

The substance “Hin F106T (from UniProt P03013 1-190) (enzyme)” returned a stoichiometry N in experiment [38] of 2.

As usually defined, the stoichiometry N is the number of molecules, sites or subunits per partner or assembly.
